For one test, the system named is RAW 264.7 cells. Briefly: TNF release from RAW 264.7 cells (L929 cytotoxicity bioassay). The test is classed as cell-based, murine. The note with it: for TNF release: 1 μg/ml protein, RAW 264.7 cells. How it is done:
Murine macrophage-like RAW 264.7 cells (American Type Culture Collection, Rockville, Md.) were cultured in RPMI 1640 medium (Life Technologies, Grand Island N.Y.) supplemented with 10% fetal bovine serum (Gemini, Catabasas, Calif.), penicillin and streptomycin (Life Technologies) and were used at 90% confluence in serum-free Opti-MEM I medium (Life Technologies, Grand Island, N.Y.). […] Polymyxin B was not used in experiments of synthetic peptide studies.
TNF release was measured by a standard murine fibroblast L929 (ATCC, American Type Culture Collection, Rockville, Md.) cytotoxicity bioassay (Bianchi et al., Journal of Experimental Medicine 183:927-936, 1996) with the minimum detectable concentration of 30 pg/ml. Recombinant mouse TNF was obtained from R&D system Inc., (Minneapolis, Minn.). Murine fibroblast L929 cells (ATCC) were cultured in DMEM (Life Technologies, Grand Island, N.Y.) supplemented with 10% fetal bovine serum (Gemini, Catabasas, Calif.), penicillin (50 units/ml) and streptomycin (50 μg/ml) (Life Technologies) in a humidified incubator with 5% CO2.
The effect of the mutants on TNF release from Murine macrophage-like RAW 264.7 cells (ATCC) was carried out as follows. RAW 264.7 cells were cultured in RPMI 1640 medium (Life Technologies, Grand Island N.Y.) supplemented with 10% fetal bovine serum (Gemini, Catabasas, Calif.), penicillin and streptomycin (Life Technologies). Polymyxin (Sigma, St. Louis, Mo.) was added at 100 units/ml to suppress the activity of any contaminating LPS. Cells were incubated with 1 μg/ml of full length (wild-type) HMGB1 and each HMGB1 mutant protein in Opti-MEM I medium for 8 hours, and conditioned supernatants (containing TNF which had been released from the cells) were collected and TNF released from the cells was measured by a standard murine fibroblast L929 (ATCC) cytotoxicity bioassay (Bianchi et al., supra) with the minimum detectable concentration of 30 pg/ml. Recombinant mouse TNF was obtained from R & D Systems Inc., (Minneapolis, Minn.) and used as control in these experiments. Data in FIG. 1 are all presented as mean+SEM unless otherwise indicated. (N=6-10).
To further examine the effect of HMGB1 B box on cytokine production, varying amounts of HMGB1 B box were evaluated for the effects on TNF, IL-1 B, and IL-6 production in murine macrophage-like RAW 264.7 cells. Conditioned media were harvested and measured for TNF, IL-1β and IL-6 levels. TNF levels were measured as described herein, and IL-1β and IL-6 levels were measured using the mouse IL-1β and IL-6 enzyme-linked immunosorbent assay (ELISA) kits (R&D System Inc., Minneapolis, Minn.) and N>5 for all experiments.
The kinetics of B box-induced TNF release was also examined. TNF release and TNF mRNA expression was measured in RAW 264.7 cells induced by B box polypeptide or GST tag polypeptide only used as a control (vector) (10 μg/ml) for 0 to 48 hours. Supernatants were analyzed for TNF protein levels by an L929 cytotoxicity assay (N=3-5) as described herein. For mRNA measurement, cells were plated in 100 mm plate and treated in Opti-MEM I medium containing B box polypeptide or the vector alone for 0, 4, 8, or 24 hours, as indicated in FIG. 2D. The vector only sample was assayed at the 4 hour time point. Cells were scraped off the plate and total RNA was isolated by RNAzol B method in accordance with the manufacturer's instructions (Tel-Test “B”, Inc., Friendswood, Tex.). TNF (287 bp) was measured by RNase protection assay (Ambion, Austin, Tex.). Equal loading and the integrity of RNA was verified by ethidium bromide staining of the RNA sample on agarose-formaldehyde gel. […] TNF mRNA expression was maximal at 4 hours and decreased at 8 and 24 hours. […] A similar study was carried out measuring TNF protein released from RAW 264.7 cells 0, 4, 8, 24, 32 or 48 hours after administration of B box or vector only (GST tag), using the L929 cytotoxicity assay described herein. […] Data are representative of three separate experiments. […]

In test [1] the test system is NF-kB-dependent ELAM promoter. Briefly: NF-kB-dependent ELAM promoter luciferase reporter in RAW 264.7 macrophages. The test is classed as cell-based, murine. As to conditions: HMGB1 100 ng/ml or B box 10 μg/ml, 5 hours; for level of luciferase stimulation: co-transfected with MyD 88 dominant negative. How it is done:
To examine the effects of HMGB1 or HMGB1 B Box on the NF-kB-dependent ELAM promoter, the following experiment was carried out. RAW 264.7 macrophages were transiently co-transfected with an expression plasmid encoding a murine MyD 88-dominant-negative (DN) mutant (corresponding to amino acids 146-296), or empty vector, plus a luciferase reporter plasmid under the control of the NF-kB-dependent ELAM promoter, as described by Means et al. (J. Immunol. 166:4074-4082, 2001). A portion of the cells were then stimulated with full-length HMBG1 (100 ng/ml), or purified HMGB1 B box (10 μg/ml), for 5 hours. Cells were then harvested and luciferase activity was measured, using standard methods. All transfections were performed in triplicate, repeated at least three times, and a single representative experiment is shown in FIG. 11B.

Test [2] deals with T1, human Toll-like receptor 4 (TLR4) (Homo sapiens, UniProt O00206).
T1 construct: expressed in transfected cells; host or cells: CHO (CHO/TLR4, ELAM-CD25 reporter)
Briefly: CD25 expression in CHO/TLR2 and CHO/TLR4 ELAM-CD25 reporter cells (flow cytometry). The format is cell-based. The note with it: CHO/TLR4 cells versus CHO/TLR2; HMG-1 100 ng/ml or B box 10 μg/ml, 18 hours. How it is done: The effect of HMGB1 or HMGB1 B box on NF-kB activation was also examined. CHO reporter cell lines that constitutively express human Toll-like receptor 2 (TLR2) or Toll-like receptor 4 (TLR4) have been previously described (Means et al., J. Immunology, 163:3920-3927, 1999). These reporter lines also contain a stably transfected ELAM-CD25 reporter gene, and express human CD25 on their surface as a consequence of NF-kB activation. CHO/TLR2 and CHO/TLR4 cells were stimulated with IL-1 (10 ng/ml), purified full-length HMG-1 (100 ng/ml), or purified B box (10 μg/ml) for 18 hours. Following stimulation, cells were stained with a PE-labeled anti-CD25 monoclonal antibody and surface expression of CD25 was measured by flow cytometry. The results of this study are shown ib FIG. 11C. Data are expressed as the ratio (fold-activation) of the percent of CD25^+ cells in unstimulated and stimulated cell populations that were gated to exclude the lowest 5% of cells based on mean FL1 fluorescence.

T1 sequence (O00206 24-839): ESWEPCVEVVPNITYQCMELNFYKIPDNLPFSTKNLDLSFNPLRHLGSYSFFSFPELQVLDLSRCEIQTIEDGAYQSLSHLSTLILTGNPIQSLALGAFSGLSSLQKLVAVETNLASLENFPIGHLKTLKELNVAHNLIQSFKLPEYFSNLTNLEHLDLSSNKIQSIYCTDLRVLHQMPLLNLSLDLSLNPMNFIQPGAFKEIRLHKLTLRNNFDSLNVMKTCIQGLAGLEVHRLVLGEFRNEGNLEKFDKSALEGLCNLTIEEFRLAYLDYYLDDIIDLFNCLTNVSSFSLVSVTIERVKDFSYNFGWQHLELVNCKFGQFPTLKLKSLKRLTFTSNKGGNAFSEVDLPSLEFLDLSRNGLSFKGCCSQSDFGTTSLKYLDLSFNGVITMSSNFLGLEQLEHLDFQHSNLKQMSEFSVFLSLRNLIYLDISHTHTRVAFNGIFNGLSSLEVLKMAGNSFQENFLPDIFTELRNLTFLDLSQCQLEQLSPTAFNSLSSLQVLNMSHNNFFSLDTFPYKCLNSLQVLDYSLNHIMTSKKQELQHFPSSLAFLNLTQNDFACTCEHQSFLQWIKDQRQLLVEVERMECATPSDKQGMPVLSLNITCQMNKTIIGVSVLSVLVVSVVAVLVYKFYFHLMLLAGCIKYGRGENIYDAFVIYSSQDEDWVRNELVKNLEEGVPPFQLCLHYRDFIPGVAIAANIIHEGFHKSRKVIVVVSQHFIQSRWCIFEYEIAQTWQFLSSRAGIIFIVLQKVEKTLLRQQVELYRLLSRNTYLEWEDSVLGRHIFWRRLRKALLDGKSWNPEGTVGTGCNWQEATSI

B1: A box: Human HMGB1 mutant containing only the A box, SEQ ID NO:21 (A box SEQ ID NO:22) (protein)
chain: MGKGDPKKPTGKMSSYAFFVQTCREEHKKKHPDASVNFSEFSKKCSERWKTMSAKEKGKFEDMAKADKARYEREMKTYIPPKGET
B1: the TNF release result in the test on RAW 264.7 cells (8 hours) was “only weakly activated TNF release”.

B2: B box: Human HMGB1 mutant containing only the B box, SEQ ID NO:20 (protein)
chain: FKDPNAPKRLPSAFFLFCSEYRPKIKGEHPGLSIGDVAKKLGEMWNNTAADDKQPYEKKAAKLKEKYEKDIAAY
In the case of B2, the “level of luciferase stimulation” value in test [1] is reported as “This effect was also observed”. Further, the TNF release result in the test with RAW 264.7 cells (8 hours) is recorded as “potent activator of monocyte TNF release”. Further, in the test on RAW 264.7 cells (10 μg/ml, 0-48 hours), the “TNF protein expression compared to medium only” value was “stimulated TNF protein expression” and the “time of maximum TNF protein release” value is at most 8 h. The “TNF release, dose dependence” value with RAW 264.7 cells (B box 0-10 μg/ml, 8 hours) is “increased with increased amounts of B box”. Further, the CD25 expression entry in test [2] is reported as “decreased CD25 expression compared to the CHO/TLR2 samples”.

B3: HMGB1: Recombinant full length human HMGB1, GST fusion system, SEQ ID NO:18; recombinant rat HMGB1 used in some experiments (protein)
chain: MGKGDPKKPTGKMSSYAFFVQTCREEHKKKHPDASVNFSEFSKKCSERWKTMSAKEKGKFEDMAKADKARYEREMKTYIPPKGETKKKFKDPNAPKRLPSAFFLFCSEYRPKIKGEHPGLSIGDVAKKLGEMWNNTAADDKQPYEKKAAKLKEKYEKDIAAYRAKGKPDAAKKGVVKAEKSKKKKEEEEDEEDEEDEEEEEDEEDEEDEEEDDDDE
modifications: GST fusion
notes: recombinant rat HMGB1 used in some experiments
Regarding B3, the “level of luciferase stimulation” value in test [1] is listed as “decreased”. Moreover, the luciferase activity result in test [1] (not co-transfected with MyD 88 dominant negative) was “stimulated luciferase activity”. Also, the TNF release result with RAW 264.7 cells (8 hours) was “significantly stimulated TNF release”. The CD25 expression entry in test [2] is reported as “decreased CD25 expression compared to the CHO/TLR2 samples”.
